Experimental data from the supplement of paper PMC6757056.
± gives the standard deviation of the averaged measurements.

B1: library; a variant is named by its letters at N, in order (parent)
chain: GCUGUCACCGGUGUAUUACCCUAGUGGUCGACCGGUCUGAUGAGUCUNNNNNNAGACGAAACAGC

Columns and labels:
hypoxanthine [1] = variants of: B1; test: FACS-Seq fitted mean relative fluorescence mCherry/BFP without ligand (log10 relative fluorescence); ligand: hypoxanthine (xanthine aptamer); higher = higher reporter protein expression; details: HEK293T, ligand present: no
In short: (§1)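 Fluorescence comes from a normal fit to bin counts, normalized against controls. HEK293T libraries lentivirally given a ribozyme-switch mCherry reporter and an EF1α-BFP marker were enriched, incubated 48 h with or without ligand, and sorted by mCherry/BFP into 6 bins. Bin genomic DNA was PCR-amplified, barcoded and sequenced on MiSeq. The log10(mCherry/BFP) mean was scaled to five spiked-in control ribozymes.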

hypoxanthine [2] = variants of: B1; test: normalized RNA/DNA level with ligand (relative to sTRSVctl = 100) (log10 (% of sTRSVctl)); ligand: hypoxanthine (xanthine aptamer); higher = less ribozyme self-cleavage, higher mRNA level; details: ligand concentration (+) RNA-Seq: 5 mM, HEK293T, reporter: mCherry (pCS4076), ligand present: yes
Experimental: (§2)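 Hammerhead (sTRSV) ribozyme switch libraries with a ligand aptamer grafted on stem I and a randomized N4-6 loop II, cloned into the 3' UTR of mCherry and transiently transfected into HEK293T cells; RNA-Seq 72 h post transfection with ligand added 1 h before transfection; RNA read count / plasmid DNA read count normalized to the non-cleaving sTRSVctl (x100), log10; sequences with >100 DNA reads. FACS-Seq: lentiviral library sorted into 6 bins after 48 h ligand, log-normal fit mean of mCherry/BFP scaled to controls. Printed sequences are partial switch sequences.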

hypoxanthine [3] = variants of: B1; test: normalized RNA/DNA level without ligand (relative to sTRSVctl = 100) (log10 (% of sTRSVctl)); ligand: hypoxanthine (xanthine aptamer); higher = less ribozyme self-cleavage, higher mRNA level; details: HEK293T, reporter: mCherry (pCS4076), ligand present: no
Experimental: as §2

hypoxanthine [4] = variants of: B1; test: FACS-Seq fitted mean relative fluorescence mCherry/BFP with ligand (log10 relative fluorescence); ligand: hypoxanthine (xanthine aptamer); ligand concentration (+) FACS-Seq: 5 mM; higher = higher reporter protein expression; details: HEK293T, ligand present: yes
In short: as §1

Variant | FACS-Seq fitted mean (log10) (hypoxanthine [1]) | normalized RNA/DNA level with ligand (log10) (hypoxanthine [2]) | normalized RNA/DNA level without ligand (log10) (hypoxanthine [3]) | FACS-Seq fitted mean (log10) (hypoxanthine [4])
GCUGUCACCGGUGUAUUACCCUAGUGGUCGACCGGUCUGAUGAGUCUCAGCGGAGACGAAACAGC [CAGCGG] | 0.2617 ± 0.00076 | 1.9 ± 0.031 | 1.48 ± 0.029 | 0.612 ± 0.059
GCUGUCACCGGUGUAUUACCCUAGUGGUCGACCGGUCUGAUGAGUCUGAGCGAAGACGAAACAGC [GAGCGA] | 0.291 ± 0.062 | 1.89 ± 0.03 | 1.497 ± 0.0043 | 0.54 ± 0.037
GCUGUCACCGGUGUAUUACCCUAGUGGUCGACCGGUCUGAUGAGUCUGAGCGGAGACGAAACAGC [GAGCGG] | -0.363 ± 0.054 | 1.64 ± 0.037 | 1.21 ± 0.073 | 0.0659 ± 0.25
GCUGUCACCGGUGUAUUACCCUAGUGGUCGACCGGUCUGAUGAGUCUGAGCGCAGACGAAACAGC [GAGCGC] | 0.507 ± 0.012 | 1.89 ± 0.026 | 1.55 ± 0.017 | 0.556 ± 0.09
GCUGUCACCGGUGUAUUACCCUAGUGGUCGACCGGUCUGAUGAGUCUAAGCCAAGACGAAACAGC [AAGCCA] | -0.28 ± 0.034 | 1.94 ± 0.039 | 1.76 ± 0.021 | 0.134 ± 0.017
GCUGUCACCGGUGUAUUACCCUAGUGGUCGACCGGUCUGAUGAGUCUAAGCCGAGACGAAACAGC [AAGCCG] | 0.00433 ± 0.082 | 1.728 ± 0.013 | 1.26 ± 0.04 | 0.4844 ± 0.0029
GCUGUCACCGGUGUAUUACCCUAGUGGUCGACCGGUCUGAUGAGUCUUAGCGGAGACGAAACAGC [UAGCGG] | 0.335 ± 0.051 | 1.875 ± 0.017 | 1.542 ± 0.011 | 0.534 ± 0.035
GCUGUCACCGGUGUAUUACCCUAGUGGUCGACCGGUCUGAUGAGUCUUAGCGAAGACGAAACAGC [UAGCGA] | 0.324 ± 0.049 | 1.89 ± 0.041 | 1.65 ± 0.025 | 0.447 ± 0.054
GCUGUCACCGGUGUAUUACCCUAGUGGUCGACCGGUCUGAUGAGUCUGAGCCAAGACGAAACAGC [GAGCCA] | -0.0202 ± 0.12 | 1.93 ± 0.066 | 1.76 ± 0.018 | 0.234 ± 0.1
GCUGUCACCGGUGUAUUACCCUAGUGGUCGACCGGUCUGAUGAGUCUAAGCGAAGACGAAACAGC [AAGCGA] | 0.221 ± 0.0035 | 1.91 ± 0.052 | 1.43 ± 0.024 | 0.391 ± 0.04
GCUGUCACCGGUGUAUUACCCUAGUGGUCGACCGGUCUGAUGAGUCUAAGCGGAGACGAAACAGC [AAGCGG] | -0.261 ± 0.031 | 1.65 ± 0.026 | 1.2 ± 0.027 | 0.442 ± 0.054
